Laboratory results as given in article PMC4298044.

Tests used:
[1] = target: soluble full-length APP (sAPPf) (human (endogenous in CSF)) (UniProt P05067); assay: co-IP + ELISA; CSF of AD and NDC subjects measured by sandwich ELISA (IBL sAPPα, IBL sAPPβ, or Novex kit that detects sAPPf and sAPPα) before and after immunoprecipitation with Sigma-Ct or IBL-β; read-out is the loss from the sample
[2] = target: sAPPβ (sAPP fragment generated after β-secretase cleavage) (human (endogenous in CSF)); assay: as above
[3] = target: APP solubilized from human brain membranes (human (endogenous in brain frontal cortex)) (UniProt P05067); assay: sucrose density gradient ultracentrifugation; continuous 5-20% sucrose gradient, 0.15 M NaCl, 50 mM MgCl2, 0.5% Brij 97, 50 mM Tris-HCl pH 7.4; 250,000 x g, 4 hr, 4°C; fractions immunoblotted; markers β-galactosidase, catalase, alkaline phosphatase
[4] = target: APP solubilized from human brain membranes (human (endogenous in brain frontal cortex)) (UniProt P05067); assay: native gel or EMSA; blue native-PAGE, NativePAGE Novex 4-16% Bis-Tris gels, samples with G-250 additive and dodecylmaltoside; brain membrane extracts and CSF; immunoblot with anti-APP antibodies

“sAPPα (sAPP fragment generated after α-secretase cleavage) (domain or fragment)” was tested, and the percent decrease of the ELISA level after immunoprecipitation of sAPPf (Sigma-Ct) [1] was 33%.
“sAPPβ (sAPP fragment generated after β-secretase cleavage) (domain or fragment)” was tested, and the percent decrease of the ELISA level after immunoprecipitation of sAPPf (Sigma-Ct) [1] was 27%.
“soluble full-length APP (sAPPf) (from UniProt P05067 18-770) (natural protein)” was tested, and the percent decrease of the ELISA level of sAPPf plus sAPPα after immunoprecipitation of sAPPβ (IBL-β) [2] was 89%.
In the case of “APP solubilized from human brain membranes (from UniProt P05067 18-770) (natural protein)”, the stoichiometry N [3] is reported as 2 and the stoichiometry N [4] is reported as 2.
